The record followed here is patent US20210253648A1.

The target of the test is HLA-A2 MHC class I molecule on the surface of the target cells (no C2 peptide added) (human).

For “TCR CMV-pp65-PE STAR multimer reagent (Soluble T-Cell Antigen Receptor STAR Multimer, Altor Bioscience)”, the Percentage of Positive Cells stood at 0.96% and the iMFI was 70 RFU.
